Three variants from IntAct's records for PubMed 20850366 can be followed below.

To fix the notation:
B1: Small glutamine-rich tetratricopeptide repeat-containing protein 2 (Saccharomyces cerevisiae), Q12118 (parent)
chain: MSASKEEIAALIVNYFSSIVEKKEISEDGADSLNVAMDCISEAFGFEREAVSGILGKSEFKGQHLADILNSASRVPESNKKDDAENVEINIPEDDAETKAKAEDLKMQGNKAMANKDYELAINKYTEAIKVLPTNAIYYANRAAAHSSLKEYDQAVKDAESAISIDPSYFRGYSRLGFAKYAQGKPEEALEAYKKVLDIEGDNATEAMKRDYESAKKKVEQSLNLEKTVPEQSRDADVDASQGASAGGLPDLGSLLGGGLGGLMNNPQLMQAAQKMMSNPGAMQNIQKMMQDPSIRQMAEGFASGGGTPNLSDLMNNPALRNMAGNLFGGAGAQSTDETPDNENKQ
B2: Small glutamine-rich tetratricopeptide repeat-containing protein 2 (Saccharomyces cerevisiae), Q12118 (parent)
chain: B1 chain
partner: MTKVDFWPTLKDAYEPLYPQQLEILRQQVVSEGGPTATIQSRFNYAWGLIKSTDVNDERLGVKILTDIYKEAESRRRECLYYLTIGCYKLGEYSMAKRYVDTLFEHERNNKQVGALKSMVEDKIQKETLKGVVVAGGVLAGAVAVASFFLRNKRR
B3: Mitochondrial fission 1 protein (Saccharomyces cerevisiae), P40515 (parent)
chain: B2 partner
partner: B1 chain

In the first test the parent is B1. As to conditions: with sec22_yeast SEC22, P22214.
sec22_yeast SEC22, P22214, sequence (P22214 whole entry): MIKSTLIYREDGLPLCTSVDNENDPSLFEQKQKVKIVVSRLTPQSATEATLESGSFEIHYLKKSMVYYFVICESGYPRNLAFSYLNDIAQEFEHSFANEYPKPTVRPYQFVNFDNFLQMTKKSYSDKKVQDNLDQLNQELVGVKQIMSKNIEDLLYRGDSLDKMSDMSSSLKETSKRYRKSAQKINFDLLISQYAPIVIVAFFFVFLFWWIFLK
Consider R171A;R175A, for which the “effect of a mutation on the interaction” value is recorded as “with no effect”.

The next test covers variants of B2. Conditions: with fis1_yeast FIS1, P40515.
As for R171A;R175A, the “effect of a mutation on the interaction” value was “with no effect”.

Another test covers variants of B3. As to conditions: with sgt2_yeast SGT2, Q12118.
Regarding G136L;G137L;G141L;A142L, the “effect of a mutation on the interaction” value is on record as “increasing interaction strength”.
